Results as given in paper PMC10415118.

Assays:
Assay in all cases: purified protein
purified protein [1] = substrate: Cc1cn([C@H]2C[C@H](O)[C@@H](CO)O2)c(=O)nc1N; settings: 30 °C, 5mdC 1-100 mM
purified protein [2] = substrate: Cc1cn([C@@H]2O[C@H](CO)[C@@H](O)[C@H]2O)c(=O)nc1N; settings: 30 °C, 5mC 1-200 mM
purified protein [3] = substrate: Nc1ccn([C@@H]2O[C@H](CO)[C@@H](O)[C@H]2O)c(=O)n1; settings: 30 °C, C 0.1-10 mM
purified protein [4] = substrate: Nc1ccn([C@H]2C[C@H](O)[C@@H](CO)O2)c(=O)n1; settings: 30 °C, dC 0.05-5 mM
purified protein [5] = substrate: CO[C@@H]1[C@H](O)[C@@H](CO)O[C@H]1n1ccc(N)nc1=O; settings: 30 °C, 2OmC 1-200 mM

B1: CDA (AtCDA; CYTIDINE DEAMINASE; CDA-Strep) (Arabidopsis thaliana) (protein)
chain: MDKPSFVIQSKEAESAAKQLGVSVIQLLPSLVKPAQSYARTPISKFNVAVVGLGSSGRIFLGVNVEFPNLPLHHSIHAEQFLVTNLTLNGERHLNFFAVSAAPCGHCRQFLQEIRDAPEIKILITDPNNSADSDSAADSDGFLRLGSFLPHRFGPDDLLGKDHPLLLESHDNHLKISDLDSICNGNTDSSADLKQTALAAANRSYAPYSLCPSGVSLVDCDGKVYRGWYMESAAYNPSMGPVQAALVDYVANGGGGGYERIVGAVLVEKEDAVVRQEHTARLLLETISPKCEFKVFHCYEA
- Km (purified protein [1]): 3.92 ± 0.61 mM
- kcat (purified protein [1]): 54.1 ± 1.68 s⁻¹
- kcat/Km (purified protein [1]): 13800 M⁻¹ s⁻¹
- Km (purified protein [2]): 8.05 ± 0.96 mM
- kcat (purified protein [2]): 35.4 ± 1.04 s⁻¹
- kcat/Km (purified protein [2]): 4400 M⁻¹ s⁻¹
- Km (purified protein [3]): 0.82 ± 0.15 mM
- kcat (purified protein [3]): 29.4 ± 1.65 s⁻¹
- kcat/Km (purified protein [3]): 35900 M⁻¹ s⁻¹
- Km (purified protein [4]): 0.28 ± 0.05 mM
- kcat (purified protein [4]): 18.1 ± 0.66 s⁻¹
- kcat/Km (purified protein [4]): 64800 M⁻¹ s⁻¹
- Km (purified protein [5]): 8.34 ± 1.12 mM
- kcat (purified protein [5]): 35.5 ± 1.12 s⁻¹
- kcat/Km (purified protein [5]): 4300 M⁻¹ s⁻¹
